Test results as given in paper PMC6863848, “Selection of an optimal macrocyclic chelator improves the imaging of prostate cancer using cobalt-labeled GRPR antagonist RM26” (Scientific Reports, 2019).

Legend:
[1] = Ex vivo biodistribution and tumor targeting; conditions: female, BALB/c nu/nu, mouse, iv, 45 pmol per mouse, total radioactivity; for tissue uptake at 3 h / tissue uptake at 24 h: PC-3-xenografted BALB/c nu/nu mice, iv 25 kBq/45 pmol, 4 mice per data point; for tissue uptake at 3 h: 3 h pi; for tissue uptake at 24 h: 24 h pi
Description: (§1) Euthanasia was performed by intraperitoneal injection of Ketalar-Rompun solution (10 mg/mL Ketalar and 1 mg/mL Rompun; 20 µL/g body weight) and all efforts were made to minimize suffering. Groups of 4 mice per data point were used.
(§2) Blood samples were collected by heart puncture. Lung, liver, spleen, pancreas, stomach, small intestines, kidneys, muscle, bone, and the rest of gastrointestinal tract with its content were collected, weighed and measured in a gamma-counter. The organ uptake values were expressed as a percentage of injected dose per gram of tissue weight (%ID/g) with the exception of gastrointestinal tract and the remaining carcass, which were calculated as %ID per whole sample.
(§3) The biodistribution and targeting properties of ^57Co-X-PEG2-RM26 were evaluated in female BALB/c nu/nu mice (weight: 18 ± 2 g). GRPR-expressing xenografts were established by subcutaneous injection of 8 × 10^6 PC-3 cells/mouse, 2 weeks prior to the experiment. At the time of experiment, the mice were intravenously injected with ^57Co-X-PEG2-RM26 (25 kBq, 45 pmol in 100 µL PBS per mouse) and were euthanized 3 and 24 h pi.

[2] = test system: PC-3 xenografted BALB/c nu/nu mice; experiment: Ex vivo biodistribution and tumor targeting; conditions: 24 h pi
Description: as §1, §2, §3

in vivo = conditions: female, BALB/c nu/nu, mouse, iv, 45 pmol per mouse, total radioactivity
Description: as §1, §2, §3

[3] = gastrointestinal tract with content (whole sample)
[4] = remaining carcass (whole sample)
[5] = small intestine, Sm. Int. uptake

SMILES | tissue uptake at 3 h ([1]; blood, Blood uptake) [%ID/g] | tissue uptake at 24 h ([1]; blood, Blood uptake) [%ID/g] | tissue uptake at 3 h ([1]; bone, Bone uptake) [%ID/g] | tissue uptake at 24 h ([1]; bone, Bone uptake) [%ID/g] | tissue uptake dose at 3 h [1, 3] [%ID] | tissue uptake dose at 24 h [1, 3] [%ID] | tissue uptake at 3 h ([1]; kidneys, Kidneys uptake) [%ID/g] | tissue uptake at 24 h ([1]; liver, Liver uptake) [%ID/g] | tissue uptake at 3 h ([1]; lung, Lung uptake) [%ID/g] | tissue uptake at 24 h ([1]; lung, Lung uptake) [%ID/g] | tissue uptake at 3 h ([1]; muscle, Muscle uptake) [%ID/g] | tissue uptake at 24 h ([1]; muscle, Muscle uptake) [%ID/g] | tissue uptake at 24 h ([1]; pancreas, Pancreas uptake) [%ID/g] | tissue uptake dose at 3 h [1, 4] [%ID] | tissue uptake dose at 24 h [1, 4] [%ID] | tissue uptake at 3 h [1, 5] [%ID/g] | tissue uptake at 24 h ([1]; spleen, Spleen uptake) [%ID/g] | tissue uptake at 3 h ([1]; stomach, Stomach uptake) [%ID/g] | tissue uptake at 3 h ([1]; tumor, Tumor uptake) [%ID/g] | tissue uptake at 24 h ([1]; tumor, Tumor uptake) [%ID/g] | other results
CC(C)C[C@H](NC(=O)C[C@H](O)[C@H](CC(C)C)NC(=O)[C@H](Cc1c[nH]cn1)NC(=O)CNC(=O)[C@@H](NC(=O)[C@H](C)NC(=O)[C@H](Cc1c[nH]c2ccccc12)NC(=O)[C@H](CCC(N)=O)NC(=O)[C@@H](Cc1ccccc1)NC(=O)COCCOCCNC(=O)CCC(C(=O)O)N1CCN(CC(=O)O)CCN(CC(=O)O)CCN(CC(=O)O)CC1)C(C)C)C(N)=O (stereo partly shown) [DOTAGA] | 0.02 ± 0.01 | 0.005 ± 0.002 | 0.02 ± 0.005 | 0.02 ± 0.03 | 1 ± 0.5 | 0.1 ± 0.1 | 3.5 ± 0.4 | 0.04 ± 0.01 | 0.07 ± 0.03 | 0.02 ± 0.02 | 0.04 ± 0.01 | 0.007 ± 0.007 | 0.028 ± 0.009 | 1.9 ± 0.9 | 0.3 ± 0.3 | 0.13 ± 0.05 | 0.016 ± 0.009 | 0.4 ± 0.3 | 6.9 ± 2.7 | 2.3 ± 0.7 | tissue uptake at 24 h ([1]; kidneys, Kidneys uptake): 1.8 ± 0.5 %ID/g; tissue uptake at 3 h ([1]; liver, Liver uptake): 0.08 ± 0.02 %ID/g; tissue uptake at 3 h ([1]; pancreas, Pancreas uptake): 0.4 ± 0.1 %ID/g; tissue uptake at 24 h [1, 5]: 0.02 ± 0.01 %ID/g; tissue uptake at 3 h ([1]; spleen, Spleen uptake): 0.08 ± 0.05 %ID/g; tissue uptake at 24 h ([1]; stomach, Stomach uptake): 0.018 ± 0.004 %ID/g; Kidney uptake, higher compared to NODAGA- and DOTA-containing analogues [2]: twofold higher
CC(C)C[C@H](NC(=O)C[C@H](O)[C@H](CC(C)C)NC(=O)[C@H](Cc1c[nH]cn1)NC(=O)CNC(=O)[C@@H](NC(=O)[C@H](C)NC(=O)[C@H](Cc1c[nH]c2ccccc12)NC(=O)[C@H](CCC(N)=O)NC(=O)[C@@H](Cc1ccccc1)NC(=O)COCCOCCNC(=O)CCC(C(=O)O)N1CCN(CC(=O)O)CCN(CC(=O)O)CC1)C(C)C)C(N)=O (stereo partly shown) [NODAGA] | 0.032 ± 0.009 | 0.006 ± 0.003 | 0.1 ± 0.2 | 0.007 ± 0.002 | 5 ± 1 | 0.3 ± 0.2 | 2.5 ± 0.8 | 0.02 ± 0.01 | 0.05 ± 0.01 | 0.02 ± 0.01 | 0.02 ± 0.01 | 0.006 ± 0.005 | 0.02 ± 0.03 | 1.3 ± 0.3 | 0.1 ± 0.1 | 0.3 ± 0.3 | 0.009 ± 0.002 | 0.39 ± 0.09 | 6.3 ± 1.2 | 2.3 ± 0.9 | tissue uptake at 24 h ([1]; kidneys, Kidneys uptake): 0.7 ± 0.4 %ID/g; tissue uptake at 3 h ([1]; liver, Liver uptake): 0.08 ± 0.02 %ID/g; tissue uptake at 3 h ([1]; pancreas, Pancreas uptake): 0.3 ± 0.2 %ID/g; tissue uptake at 24 h [1, 5]: 0.015 ± 0.007 %ID/g; tissue uptake at 3 h ([1]; spleen, Spleen uptake): 0.05 ± 0.02 %ID/g; tissue uptake at 24 h ([1]; stomach, Stomach uptake): 0.04 ± 0.01 %ID/g
CC(C)C[C@H](NC(=O)C[C@H](O)[C@H](CC(C)C)NC(=O)[C@H](Cc1c[nH]cn1)NC(=O)CNC(=O)[C@@H](NC(=O)[C@H](C)NC(=O)[C@H](Cc1c[nH]c2ccccc12)NC(=O)[C@H](CCC(N)=O)NC(=O)[C@@H](Cc1ccccc1)NC(=O)COCCOCCNC(=O)CN1CCN(CC(=O)O)CCN(CC(=O)O)CC1)C(C)C)C(N)=O [NOTA] | 0.019 ± 0.004 | 0.006 ± 0.001 | 0.04 ± 0.04 |  | 0.6 ± 0.1 | 0.09 ± 0.03 | 0.93 ± 0.05 | 0.025 ± 0.005 | 0.065 ± 0.005 | 0.09 ± 0.15 | 0.08 ± 0.1 | 0.011 ± 0.005 | 0.023 ± 0.002 | 0.6 ± 0.4 | 0.18 ± 0.06 | 0.098 ± 0.028 | 0.029 ± 0.004 | 0.3 ± 0.1 | 7.3 ± 1.3 | 2.1 ± 0.2 | tissue uptake at 24 h (in vivo; Bone uptake): 0.08 ± 0.05 %ID/g; tissue uptake at 24 h (in vivo; Kidneys uptake): 0.09 ± 0.03 %ID/g; tissue uptake at 3 h (in vivo; Liver uptake): 0.07 ± 0.004 %ID/g; tissue uptake at 3 h (in vivo; Pancreas uptake): 0.21 ± 0.052 %ID/g; tissue uptake at 24 h (in vivo; Sm. Int. uptake): 0.06 ± 0.03 %ID/g; tissue uptake at 3 h (in vivo; Spleen uptake): 0.05 ± 0.008 %ID/g; tissue uptake at 24 h (in vivo; Stomach uptake): 0.05 ± 0.03 %ID/g
